According to PMC8815872, “A novel dual-labeled small peptide as a multimodal imaging agent for targeting wild-type EGFR in tumors” (PLoS ONE, 2022):
Like-named read-outs stand apart in the source and are kept apart here. Where a SMILES comes first, the peptide text is derived from it. The star is where a group is joined. 5TAMRA = CN(C)c1ccc2c(c1)Oc1cc(N(C)C)ccc1C21OC(=O)c2cc(C(=O)*)ccc21

How the values were obtained:
[1] = Radiochemical stability in saline; type: physicochemical; settings: room temperature, silica capillary column radio-chromatography, mean ± SD, n = 3
Protocol: To evaluate the radiochemical stability of the Tc-99m peptide complex, the labeled complex (0.1 ml) was incubated with 1 ml of saline at room temperature and freshly collected human serum at 37°C. Samples were collected at 30 min and at 1, 3, and 24 h and were analyzed using capillary column with saline (Rf of Tc-99m SYPIPDT-ECG-TAMRA and free pertechnetate = 0.9–1.0; Rf of colloid = 0.0–0.1) and acetone (Rf of free pertechnetate = 0.9–1.0; Rf of Tc-99m SYPIPDT-ECG-TAMRA and colloid = 0.0–0.1) as mobile phases. All experiments were conducted in triplicate (n = 3).

[2] = tested on: NCI-H460 cells (wtEGFR-positive); experiment: Saturation binding study, NCI-H460 cells; design: species or system human; settings: 37°C, 1 h
Protocol: NCI-H460 and SW620 cells were cultured in a humidified atmosphere with 5% carbon dioxide at 37°C. The cells were maintained in Dulbecco modified Eagle medium supplemented with 10% fetal bovine serum, streptomycin (100 μg/ml), and penicillin (100 U/ml). The cells were used for experiments and studies once about 80% confluence had been reached.
The binding affinities of Tc-99m SYPIPDT-ECG-TAMRA for NCI-H460 and SW620 cells were evaluated by saturation binding studies as described previously. Briefly, NCI-H460 and SW620 cells were plated into 96-well plates at a density of 1 × 10^4 cells/well and cultured overnight. Cells were washed twice (5 min each) using ice-cold binding buffer (25 mM HEPES and 1% bovine serum albumin). A concentration gradient (0–2,000 nM) of Tc-99m SYPIPDT-ECG-TAMRA was added to the wells and the cells were maintained at 37°C for 1 h. The total volume of each well was 200 μl. After cells were washed twice using ice-cold binding buffer, the cells of each well were obtained for gamma counting. Radioactivities of collected cells were measured using a 1480 Wizard 3 gamma counter (PerkinElmer Life and Analytical Sciences, Wallingford, CT, USA). The binding affinity value (Kd) was calculated by non-linear regression models of GraphPad Prism software version 5.03 (GraphPad Software, La Jolla, CA, USA). Each data point is the average value of four determinations.

[3] = tested on: NCI-H460 cells (wtEGFR-positive); experiment: Cellular uptake using confocal microscopy, NCI-H460 cells; type: cell-based, human; settings: 200 nM, 37°C, 1 h, serum free medium
Protocol: (§1) NCI-H460 and SW620 cells (1 × 10^5 cells) were cultured on the top of a cover-slip slide for 24 h at 37°C. The medium was replaced with fresh serum free medium (500 μL) containing Tc-99m SYPIPDT-ECG-TAMRA (200 nM). Cells were then incubated at 37°C for 1 h. These cells were rinsed three times with phosphate-buffered saline (PBS). The cell were stained with anti-human wtEGFR antibody (cat. 4267S; Cell Signaling Technology, Danvers, MA, USA) and Alexa Fluor® 488-conjugated goat anti-rabbit secondary antibody (cat. 111-545-003, 1:100 dilution; Jackson Immuno Research Inc., West Grove, PA, USA). The slides were covered with fluorescent mounting medium (Dako, Glostrup, Denmark) and closed with cover glasses. The confocal microscopic study was performed with a FV1200 confocal microscope (Olympus, Pittsburgh, PA, USA) with a 100× oil immersion lens.

[4] = tested on: mice bearing NCI-H460 and SW620 tumors; experiment: Ex vivo fluorescent imaging of excised organs and tumors; settings: excised tumors after in vivo gamma camera imaging, n = 5
Protocol: Exposure time was 2.0 s per image. The images were analyzed using the dedicated software.

[5] = tested on: NCI-H460 and SW620 tumor tissue; experiment: Confocal microscopy with immunohistochemical staining of tumor tissue; type: in vivo, mice; settings: frozen tumor slices
Protocol: After the ex vivo imaging study, tumor tissues were snap-frozen in liquid nitrogen. Frozen tumor tissues were cut into slices (10 μm in thickness). After drying at room temperature, slices were fixed with ice-cold acetone for 10 min and then air dried at room temperature for 20 min. Tumor sections were maintained with 5% goat serum for 30 min at room temperature for blocking of nonspecific binding. Then, tumor sections were stained with anti-human wtEGFR antibody (cat. 4267S; Cell Signaling Technology, Danvers, MA, USA) for 1 h at room temperature. After being rinsed with PBS buffer, tumor slides were incubated with Alexa Fluor® 488-conjugated goat anti-rabbit secondary antibody (cat. 111-545-003, 1:100 dilution; Jackson Immuno Research Inc., West Grove, PA, USA). After being washed three times with PBS, tumor slides covered using Prolong® Gold Antifade Reagent with 4’,6-diamidino-2-phenylindole (DAPI; Invitrogen, Carlsbad, CA, USA) and closed with cover glasses. Confocal microscopic study was performed using a FV1200 confocal microscope (Olympus) with a 60× oil immersion lens.

[6] = tested on: mice bearing NCI-H460 and SW620 tumors
Protocol: (§2) Six-week-old female homozygous athymic BALB/c nu/nu mice (weighing 16–18 g) were purchased from Damul Science (Daejeon, Korea) and kept in cages. They were provided free access to food and tap water. After one week of adaptation to laboratory conditions, the mice were subcutaneously inoculated with 1 × 10^7 NCI-H460 (wtEGFR-positive) and SW620 (wtEGFR-negative, as an internal reference) cells (in 0.1 ml PBS) in both sides of the anterior chest region, respectively. The tumors were allowed to grow to about 300 to 400 mm^3 in volume. Tumor volume was calculated using the formula: V (mm^3) = 0.5 × a × b^2, where a and b represent the long and perpendicular short diameters of the tumor by caliper measurements. Approximately 21 days after inoculation, gamma camera imaging and biodistribution studies were performed.
(§3) Following the in vivo gamma camera imaging study, mice were sacrificed by cervical dislocation after anesthesia by intraperitoneal injection of 100 mg/kg bodyweight ketamine (n = 5).
(§4) Tissues of tumors and selected organs were weighed and collected into pre-weighed gamma counter tubes. The radioactivity of the tissues were counted using a gamma counter (1480 Wizard 3; PerkinElmer Life and Analytical Sciences) and counts per minute were decay-corrected. Results are expressed as a percentage injected dose per gram of wet tissue (%ID/g). Total activities injected per animal were calculated by evaluating the difference between pre-injection syringe counts and remaining syringe counts after injection.

[7] = in vivo; settings: female, athymic BALB/c nu/nu, mouse, total radioactivity, Mean %ID/g (SD)
Protocol: as §2, §3, §4

[8] = tested on: EGFR; settings: concentration dependent; cited from earlier work
Source text: A major drawback of these imaging agents is their large size, which hinders efficient penetration into the targeted tissue and prevents rapid clearance from the non-targeted tissues. Therefore, efforts have been made to reduce the size of the targeting agents. Monoclonal antibody fragments such as Fab′, scFv, Affibody and Nanobody, have been investigated. However, the antibody fragments show reduced binding affinity for their target compared to the parental antibody, and their stability also decreases over time. In the present study, we tried to overcome these drawbacks by utiliz ...

[9] = tested on: SW620 cells (wtEGFR-negative); experiment: Cellular uptake using confocal microscopy, SW620 cells; type: cell-based, human; settings: 200 nM, 37°C, 1 h, serum free medium
Protocol: as §1

[10] = NCI-H460 tumor (wtEGFR-positive)

Question: With `CC[C@H](C)[C@H](NC(=O)[C@@H]1CCCN1C(=O)[C@H](Cc1ccc(O)cc1)NC(=O)[C@@H](N)CO)C(=O)N1CCC[C@H]1C(=O)N[C@@H](CC(=O)O)C(=O)N[C@H](C(=O)NCC(=O)N[C@@H](Cc1c[nH]cn1)C(=O)N[C@@H](CCC(=O)O)C(=O)NCC(=O)N[C@@H](CCC(=O)O)C(=O)N[C@@H](CS)C(=O)NCC(=O)N[C@@H](CCCCNC(=O)c1ccc2c(c1)C(=O)OC21c2ccc(N(C)C)cc2Oc2cc(N(C)C)ccc21)C(=O)O)[C@@H](C)O` [Tc-99m SYPIPDT-ECG-TAMRA, Tc-99m SYPIPDT-GHEG-ECG-K-tetramethylrhodamine, metal not drawn] (H-SYPIPDTGHEGECGK(5TAMRA)-OH) as the compound, how does the “intact percentage incubated in saline” value ([1]; 30 min, 0.1 ml complex in 1 ml) read?
Answer: Its value is 95.1 ± 0.6%.

Question: And the “intact percentage incubated in saline” value ([1]; 1 h)?
Answer: Its value is 94.7 ± 1.3%.

Question: And the “intact percentage incubated in saline” value ([1]; 3 h)?
Answer: Its value is 93.9 ± 1.1%.

Question: What about the “intact percentage incubated in saline” value ([1]; 24 h) of the same compound?
Answer: The value was 92.1 ± 1.4%.

Question: What about the Kd ([2]; 0-2,000 nM, gamma counting, non-linear regression, four determinations per point, read-out: binding affinity value (Kd) for NCI-H460 cells) of the same compound?
Answer: Its Kd is 76.5 ± 15.8 nM.

Question: What about the Bmax ([2]; NCI-H460 cells) of the same compound?
Answer: The Bmax was 3652 ± 189 fmol/mg protein.

Question: What about the “fluorescence activity of TAMRA on cells (confocal microscopy)” value (“fluorescence activity of TAMRA on cells” for short) [3] of the same compound?
Answer: The value was “strong fluorescence activity”.

Question: And the “ex vivo fluorescent activity, NCI-H460 tumor versus SW620 tumor” value [4]?
Answer: The value was “significantly higher fluorescent activity”.

Question: What about the “fluorescence within NCI-H460 tumor tissue (confocal microscopy)” value ([5]; NCI-H460 tumor) of the same compound?
Answer: The value was “significant”.

Question: What about the “fluorescent activity of TAMRA in SW620 tumor tissue (confocal microscopy)” value ([5]; SW620 tumor) of the same compound?
Answer: Its value is “barely detected”.

Question: What about the “tumor to normal muscle ratio of the %ID/g values” ([6]; 1 h after injection) of the same compound?
Answer: The value was 2.45 ± 0.22.

Question: What about the “tumor to normal muscle ratio of the %ID/g values” ([6]; 3 h after injection) of the same compound?
Answer: Its value is 7.13 ± 2.00.

Question: What about the tissue uptake at 1 h ([7]; Blood) of the same compound?
Answer: The tissue uptake at 1 h was 3.22 %ID/g.

Question: And the tissue uptake at 3 h ([7]; Blood)?
Answer: The tissue uptake at 3 h was 0.87 %ID/g.

Question: What about the tissue uptake at 1 h ([7]; Colon) of the same compound?
Answer: Its tissue uptake at 1 h is 1.11 %ID/g.

Question: What about the tissue uptake at 3 h ([7]; Colon) of the same compound?
Answer: The tissue uptake at 3 h was 0.42 %ID/g.

Question: And the tissue uptake at 1 h ([7]; Heart)?
Answer: Its tissue uptake at 1 h is 1.43 %ID/g.

Question: And the tissue uptake at 3 h ([7]; Heart)?
Answer: Its tissue uptake at 3 h is 0.45 %ID/g.

Question: And the tissue uptake at 1 h ([7]; Kidneys)?
Answer: The tissue uptake at 1 h was 21.1 %ID/g.

Question: What about the tissue uptake at 3 h ([7]; Kidneys) of the same compound?
Answer: Its tissue uptake at 3 h is 12.4 %ID/g.

Question: And the tissue uptake at 1 h ([7]; Liver)?
Answer: The tissue uptake at 1 h was 1.9 %ID/g.

Question: And the tissue uptake at 3 h ([7]; Liver)?
Answer: Its tissue uptake at 3 h is 1.07 %ID/g.

Question: And the tissue uptake at 1 h ([7]; Lungs)?
Answer: Its tissue uptake at 1 h is 2.23 %ID/g.

Question: What about the tissue uptake at 3 h ([7]; Lungs) of the same compound?
Answer: Its tissue uptake at 3 h is 0.61 %ID/g.

Question: And the tissue uptake at 1 h ([7]; Muscles)?
Answer: Its tissue uptake at 1 h is 0.79 %ID/g.

Question: And the tissue uptake at 3 h ([7]; Muscles)?
Answer: The tissue uptake at 3 h was 0.25 %ID/g.

Question: And the tissue uptake at 1 h [7, 10]?
Answer: The tissue uptake at 1 h was 1.91 %ID/g.

Question: What about the tissue uptake at 3 h [7, 10] of the same compound?
Answer: Its tissue uptake at 3 h is 1.7 %ID/g.

Question: What about the tissue uptake at 1 h ([7]; SW620 tumor (wtEGFR-negative)) of the same compound?
Answer: The tissue uptake at 1 h was 1.27 %ID/g.

Question: And the tissue uptake at 3 h ([7]; SW620 tumor (wtEGFR-negative))?
Answer: Its tissue uptake at 3 h is 0.54 %ID/g.

Question: What about the tissue uptake at 1 h ([7]; Stomach) of the same compound?
Answer: Its tissue uptake at 1 h is 1.68 %ID/g.

Question: What about the tissue uptake at 3 h ([7]; Stomach) of the same compound?
Answer: Its tissue uptake at 3 h is 0.37 %ID/g.

Question: For “SYPIPDT [small 7-mer peptide ligand for wild-type EGFR identified by phage display (Hamzeh-Mivehroud et al.)]”, which “diminished the increased EGF-dependent phosphorylation of EGFR” value [8] is on record?
Answer: The value was 44%.

Question: Which “fluorescence activity of TAMRA on cells” value [3] does the source give for “SYPIPDT-GHEG-ECG-K-tetramethylrhodamine [SYPIPDT-ECG-TAMRA, unlabeled precursor peptide with GHEG linker, ECG chelator and TAMRA dye]” here?
Answer: The value was “strong fluorescence activity”.

Question: And the “fluorescence activity of TAMRA on cells” value [9]?
Answer: Its value is “barely detectable”.
